According to patent publication US20260217845A1 (published 2026):

Tests used:
[1] = target: T1, human TNFR2 (extracellular domain) (UniProt P20333 23-257); assay: binding affinity
T1 chain: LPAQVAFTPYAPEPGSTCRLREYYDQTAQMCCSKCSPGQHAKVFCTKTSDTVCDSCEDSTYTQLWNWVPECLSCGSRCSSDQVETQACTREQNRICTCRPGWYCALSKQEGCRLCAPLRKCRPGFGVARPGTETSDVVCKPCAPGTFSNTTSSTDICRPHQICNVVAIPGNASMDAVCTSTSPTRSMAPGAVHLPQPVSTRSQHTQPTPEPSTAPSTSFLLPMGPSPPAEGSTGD

[2] = target: T1, human TNFR2 (extracellular domain); assay: SPR
[3] = target: T1, human TNFR2 (extracellular domain); assay: SPR
[4] = target: T1, human TNFR2 (extracellular domain); assay: binding affinity; marked * on sheet
[5] = target: T1, human TNFR2 (extracellular domain); assay: SPR
[6] = target: T1, human TNFR2 (extracellular domain); assay: SPR
[7] = target: T1, human TNFR2 (extracellular domain); assay: SPR

B1: ODY-31G3 (VHH)
VHH: EVQLVESGGGLVQAGGSLRVSCAASGSIFRADAMGWHRQVPGKPREFVAGIRSDGFTNYAEAVKGRFTISWDTVKNTVYLQMNSLKPEDTAVYTCYYQSLSSPNYGQVFWGQGTQVTVSS
A Kd [1] of 7.9 nM and a Kd [2] of 7.9 nM were found for B1 in this work.

B2: ODY-31D6 (VHH)
VHH: EVQLVESGGGLVQAGGSLRLSCAASGSIVSTNGMGWHRQVPGKGRELVAGIRSDGFTNYADSVKGRFTISSDNVKNTVYLQMNSLKAEDSGVYFCYYQALSSPNYGQTFWGQGTQVTVSS
A Kd [3] of 19 nM and a Kd [1] of 19 nM were found for B2 in this work.

B3: ODY-35A10 (VHH)
VHH: EVQLVESGGGLVEAGGSLRLSCAASGRTFGSYTMGWFRQAPGREQEFLASIRRTGGSTSYADSVKGRFTISRDNAKKAVYLQMNSLKPEDTAVYYCAAAPTGRAFTYWGQGTQVTVSS
A Kd [4] of 48 nM and a Kd [5] of 48 nM were found for B3 in this work.

B4: ODY-37C7 (VHH)
VHH: EVQLVESGGGLVQPGGSLRLSCAASGFTFDDIAMTWVRQAPGKGLEWVSSIYSYGPNTYYADSVKGRFTISTDSAKNTLYLQMNSLKPEDTAVYYCAADSDLSTVVVGPHDYWGQGTQVTVSS
A Kd [1] of 13 nM and a Kd [6] of 13 nM were found for B4 in this work.

B5: ODY-33D4 (VHH)
VHH: EVQLVESGGGLVQAGGSLRLSCAASGRTFSDYGMGWFRQAPGKDSEFVAAINWSNGRTNYADSVKGRFTISRDNAKNTGYLEMNSLKVEDTAVYYCAATPSGKAYSYWGQGTQVTVSS
A Kd [1] of 5.6 nM and a Kd [7] of 5.6 nM were found for B5 in this work.
